Laboratory results taken from the supplement of paper PMC10567573.

B1: MMP1 (parent)
chain: FVRGDHRDNSPFDGPGGNLAHAFQ

Variants of: B1
Assay: protein stability index of a GFP-peptide fusion (GPS, HEK-293T) (PSI 1-6); higher = more stable
Details: c terminus: a fixed tail appended
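Further: lentivirally expressed fusions sorted by FACS into six bins by GFP to DsRed ratio, PSI derived from sequencing read proportions per bin multiplied by bin number.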

| Variant | protein stability index |
| --- | --- |
| FVRGDHRDNSPFDGPSGNLAHAFQ [G16S] | 2.23 |
| FVRGDHRDSSPFDGPGGNLAHAFQ [N9S] | 2.41 |
| FVRGDERDNSPFDGPGGNLAHAFQ [H6E] | 1.76 |
| FVRGDHRDNSIFDGPGGNLAHAFQ [P11I] | 1.7 |
| FVRGDHRDNSPQDGPGGNLAHAFQ [F12Q] | 1.8 |
| FVRGDHRDNSPFDGPHGNLAHAFQ [G16H] | 1.87 |
| FVRGDHYDNSPFDGPGGNLAHAFQ [R7Y] | 2.18 |
| FLRGDHRDNSPFDGPGGNLAHAFQ [V2L] | 3.03 |
| YVRGDHRDNSPFDGPGGNLAHAFQ [F1Y] | 1.81 |
| FVRGDHRDNSPEDGPGGNLAHAFQ [F12E] | 1.82 |
| FVRGDHRDNSPFDGPGGNLCHAFQ [A20C] | 2.69 |
| RVRGDHRDNSPFDGPGGNLAHAFQ [F1R] | 3.36 |
| FVRGDVRDNSPFDGPGGNLAHAFQ [H6V] | 2.48 |
| FVRGDHRDNSPFDGPGGNLAHFFQ [A22F] | 2.25 |
| FVRGDHRDNSDFDGPGGNLAHAFQ [P11D] | 2.79 |
| FVRGDHRTNSPFDGPGGNLAHAFQ [D8T] | 2.28 |
| FVRGDHRDNSPFDGPGGNLAMAFQ [H21M] | 2.01 |
| FVRGDHRENSPFDGPGGNLAHAFQ [D8E] | 1.31 |
| FVRGDHRDNSPFDGPGGNSAHAFQ [L19S] | 1.15 |
| FVRGDHRDNSPFDGPGGNLAHAFA [Q24A] | 1.88 |
| KVRGDHRDNSPFDGPGGNLAHAFQ [F1K] | 3.56 |
| FVRGDHRDNSPKDGPGGNLAHAFQ [F12K] | 2.27 |
| FVRGDHRDNNPFDGPGGNLAHAFQ [S10N] | 1.38 |
| FVRGDHRCNSPFDGPGGNLAHAFQ [D8C] | 3.26 |

| Variant | protein stability index |
| --- | --- |
| FVRGDHRDNSPFDGPGVNLAHAFQ [G17V] | 2.43 |
| FVRGDHRDNSPFDGGGGNLAHAFQ [P15G] | 1.61 |
| FPRGDHRDNSPFDGPGGNLAHAFQ [V2P] | 2.85 |
| FVRGDHRDNSPFDGPGGNLAKAFQ [H21K] | 1.95 |
| FVRGDHRDNSPFDGPGGNAAHAFQ [L19A] | 1.38 |
| FVREDHRDNSPFDGPGGNLAHAFQ [G4E] | 1.76 |
| FVRGDHRDNSPFDFPGGNLAHAFQ [G14F] | 2.93 |
| FVRGDHRDNSPFDGPGYNLAHAFQ [G17Y] | 3.31 |
| FVRGDHRDNDPFDGPGGNLAHAFQ [S10D] | 1.35 |
| FVRGDHRDNSPFDGPKGNLAHAFQ [G16K] | 1.52 |
| FVRGDHRDNSPLDGPGGNLAHAFQ [F12L] | 1.72 |
| FVRGDHRDNSPFDGPVGNLAHAFQ [G16V] | 1.83 |
| FVRGDHRDNSPFDGPGGNLAHCFQ [A22C] | 1.98 |
| FVRGDRRDNSPFDGPGGNLAHAFQ [H6R] | 1.99 |
| FVRGDHRDNSPFDGPGGNLIHAFQ [A20I] | 2.04 |
| FVRGDHRDTSPFDGPGGNLAHAFQ [N9T] | 2.13 |
| FVRGDHRDNSPFDGPGCNLAHAFQ [G17C] | 2.62 |
| FVRGDHRDNSPFDGPRGNLAHAFQ [G16R] | 2.45 |
| FFRGDHRDNSPFDGPGGNLAHAFQ [V2F] | 2.61 |
| FVRGDHRDNSPFDGPGTNLAHAFQ [G17T] | 2.05 |
| FVRGDHRDNSPFDGPGGNLAHAMQ [F23M] | 2.25 |
| FVRGDPRDNSPFDGPGGNLAHAFQ [H6P] | 1.48 |
| FVRGDHRDNSPFDGPGGVLAHAFQ [N18V] | 2.14 |
| FVRGDHRDNSPFDGRGGNLAHAFQ [P15R] | 3.76 |

| Variant | protein stability index |
| --- | --- |
| FVRGWHRDNSPFDGPGGNLAHAFQ [D5W] | 2.86 |
| FVRGDHRDNSPFDGPGGNMAHAFQ [L19M] | 2.1 |
| FVRGDHRDNSPFDGPGGNLAVAFQ [H21V] | 1.6 |
| FVRGDHRDKSPFDGPGGNLAHAFQ [N9K] | 2.47 |
| FVRGDHRDFSPFDGPGGNLAHAFQ [N9F] | 3.83 |
| FVRGDHRMNSPFDGPGGNLAHAFQ [D8M] | 3.46 |
| FVRADHRDNSPFDGPGGNLAHAFQ [G4A] | 2 |
| FVRGDHRDNSPFDGPGGNHAHAFQ [L19H] | 1.39 |
| FVRGDHRDNSPFDGPGGNLAHHFQ [A22H] | 2 |
| FVRGDHRDNSPFDGPGGNLAEAFQ [H21E] | 1.94 |
| FVRGDHRDNSPFDGPGGGLAHAFQ [N18G] | 1.99 |
| FVRGDHRDNSPFCGPGGNLAHAFQ [D13C] | 2.36 |
| FVRGDHRDNSEFDGPGGNLAHAFQ [P11E] | 2.06 |
| FVRGDHRDNSPFDGKGGNLAHAFQ [P15K] | 1.94 |
| FVRGDHRDNSPFDGPGRNLAHAFQ [G17R] | 1.79 |
| FVRGDHRDNSPFDGPGGNLAHWFQ [A22W] | 1.68 |
| FVRGDHRDNSPFDGPGGNLAHASQ [F23S] | 1.88 |
| FVRGDHRDNSPFDGPGGNLAHAFN [Q24N] | 1.62 |
| FVRGDHRDNSPFDGPGGNLVHAFQ [A20V] | 1.99 |
| FVRGDHWDNSPFDGPGGNLAHAFQ [R7W] | 2.33 |
| FVRGDHRDWSPFDGPGGNLAHAFQ [N9W] | 2.12 |
| FVRGDHRDNSPFDPPGGNLAHAFQ [G14P] | 1.91 |
| FVRGDHRDNSNFDGPGGNLAHAFQ [P11N] | 2.13 |
| FVRGDFRDNSPFDGPGGNLAHAFQ [H6F] | 3.13 |

| Variant | protein stability index |
| --- | --- |
| FVRGNHRDNSPFDGPGGNLAHAFQ [D5N] | 2.52 |
| FVRGDHRDNSVFDGPGGNLAHAFQ [P11V] | 2.06 |
| FVRGDHRDNSPPDGPGGNLAHAFQ [F12P] | 2.31 |
| FVRGDHRDNSPFDGPGGNLAHAFD [Q24D] | 2.75 |
| FVRGDHRDNSPIDGPGGNLAHAFQ [F12I] | 1.72 |
| FVRGDHRDNSPFDNPGGNLAHAFQ [G14N] | 1.7 |
| FVRGDHSDNSPFDGPGGNLAHAFQ [R7S] | 1.37 |
| FVRGDHRDNSPFDGPGGRLAHAFQ [N18R] | 3.01 |
| FVRGDHRDNSPFDVPGGNLAHAFQ [G14V] | 3.45 |
| FVRGDHRDNSPFDGWGGNLAHAFQ [P15W] | 1.87 |
| FVFGDHRDNSPFDGPGGNLAHAFQ [R3F] | 1.69 |
| FVRGDHRDNSPFDGPGGNLAHAFG [Q24G] | 1.99 |
| FVRGDHRINSPFDGPGGNLAHAFQ [D8I] | 1.87 |
| FVRGDHRDQSPFDGPGGNLAHAFQ [N9Q] | 2.07 |
| FVRGDHRDNSPFDGPQGNLAHAFQ [G16Q] | 2.75 |
| FVRGDHRDNKPFDGPGGNLAHAFQ [S10K] | 2.63 |
| FVRDDHRDNSPFDGPGGNLAHAFQ [G4D] | 3.02 |
| FVRGDHRDNSPFDGPGGNLAGAFQ [H21G] | 1.81 |
| FVRGDHRDNSPFDGPGGNLTHAFQ [A20T] | 3.31 |
| FVRGDHMDNSPFDGPGGNLAHAFQ [R7M] | 1.78 |
| FVRGDHRDCSPFDGPGGNLAHAFQ [N9C] | 1.93 |
| FVRGDHRDNSPFDGPGGNLAHAFS [Q24S] | 1.02 |
